According to the nanobody polyreactivity screen of Harvey et al. (2022):

Assay: yeast display, Sf9 membrane polyspecificity reagent, FACS + sequencing; frameworks hold sequencing errors
Method in brief: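 In a synthetic yeast display library (Saccharomyces cerevisiae BJ5465), nanobody expression was induced with galactose for 36–48 hours. FACS gates were set low and high (top ~1%) using anti-HA fluorescence for expression and streptavidin fluorescence for binding of the Sf9 membrane reagent. Each polyreactivity label is drawn from the gate of origin.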

QVHLVESGGGLVQARGSLRLSCAASGSIFRNYAMGWYRQAPGKERELLATISGRGGRTYYADSVKGRFTISRDNAKNTVYLQMNSLKPEDTAVYYCAARGTLGKYSTATVYWGKGTQVTVSS
polyreactivity (PSR sort gate): high polyreactivity

QVQLVESGGGLVQAGGSLRLSCAASGNIFKYYTMGWYRQAPGKERELVAAITSGGRTNYADSVKGRFTISRDNAKNTVYLQMNSLKPEDTAVYYCAAYDVIYSQGFDYWGQGTQVTVSS
polyreactivity (PSR sort gate): low polyreactivity

QVQLVESGGGLVQAGGSLRLSCAASGRIFTPYVMGWYRQAPGKERELVARISWTGSSTYYADSVKGRFTISRDNAKNTVYLQMNSLKPEDTAVYYCAKRLTRFYTRLEYWGQGTQVTVSS
polyreactivity (PSR sort gate): low polyreactivity

QVQLVESGGGLVQAGGSLRLSCAATGSIFVGYVMGWYRQAAGKERELVAAISRSGGRTYYADSVKGRFTISRDNAKNTVYLQMNSLKPEDTAVYYCAVRHRFYTAGYDYWGQGTQVTVSS
polyreactivity (PSR sort gate): low polyreactivity

QVQLVESGGGLVQEGGSLRLSCAASGGTFWLYTMGWYRQAPGKERELVAAITKSGGSTYYADSVKGRFTISRDNAKNTVYLQMNSLKPEDTAVYDCAARYSVYRDGYYWGQGTQVTVSS
polyreactivity (PSR sort gate): high polyreactivity

QVQLVESGGGLVQGGGSLSLRCAASGSTFDYNAMGWYRQAPGKERDLVAVISGGSSTNYADSVKGRFTISRDNEKNTVYLQMNSLNPEDTAVYYCNARDYFVARAVSFVTYWLGVYWGQGTQVSVSS
polyreactivity (PSR sort gate): low polyreactivity

QVQLVESGGGLVQAGGSLRLTCAASGITFRKYAMGWYRQAPGKERELVAGIRYSGSSTYYADSVKGRFTISRDNAKNTVYLQMNSLKPEDTAVYYGATGGYVWYRSVNVWTRMDYWGQGTQVTVSS
polyreactivity (PSR sort gate): high polyreactivity

QVQLVESGGGLVQAGGSLRLSCAASGSIFDGYAMGWYRQAPGKETELVARITWSGGSTYYADSVKWRFTISRDNAKNTVYLQMNSLKPEDTAVYYCNVDQVHPTRGLDYWGQGTQVTVSS
polyreactivity (PSR sort gate): low polyreactivity

QVQLVESGGGLVQAGGSLRLSCAASGRTFLGYAMGCYRQAPGKERELVATITKRGSSTYYADSVKGRFTISRDNANNTVYLQMTSLKPEDTAVYYCAARRYPRRFAIDYWGQGTQVTVSS
polyreactivity (PSR sort gate): high polyreactivity

QVQLVESGGGLVQAGGSLRLSCAASGLTFGAYAMGWYRQAPGKERELVSAISWSGNTYYADSVKGRFTISRDNAKNTVYLQMNSLKPEDTAGYYCAVRSYGHGFDYWGQGTQVTVSS
polyreactivity (PSR sort gate): high polyreactivity

QVQLVESGGGLVQAGGSLRLSCAASGSIFQGYAMGWYRQAPGKERELVAAITASGGSTYYADSVKRRFTISRDNAKNTVYLQMNSLKPEDTAVYYCATDSYWRQDLYRYEYWGQGTQVTVSS
polyreactivity (PSR sort gate): high polyreactivity

QVQLVESGGGLVQAGGSLRLSCAASGSNLSAYAMGWYRQAPGKERELVAAISWSGGSTYYADSVKGRFTISRDNAKNTVYFQMNSLKPEDTAVYYCATVNKKWRRYDYWGQGSQVTVSS
polyreactivity (PSR sort gate): high polyreactivity

QGQLGESGGGLVQAGGSLRLSCAATGFTSYVYAMGWYRQAPGKERELVAAISLRTASTYYADSVKGRFTISRDNAKNTVYLQMTSLKPEDTAVYDCALGRETYRYAYRLNYWGQGTQVTLSS
polyreactivity (PSR sort gate): high polyreactivity

QVQLQESASGLVQAGGSLRLSCAASGAIFPAYLMGWYRQAPGKERELVAGISYGSITYCADSVKGRFNISRDNAKNTVYLQMNSLKPEDTAVYYCAKDIGVRRRDYEDYEYWGQGTQVTVSS
polyreactivity (PSR sort gate): low polyreactivity

QVQLEESGGGLVQAGGSHRLSCPASGRTFYKNAMGWSRQAPRKERELVAAITSGGSTNYADSVKGRFSISRDNAKNSVYLQMNSLKSEDTAVYYCAAQQFPYYRSRFSYINKYDYWGQGTQVTVSS
polyreactivity (PSR sort gate): high polyreactivity

QVQLVESGGGLVQAGGSLRVSCAASGFIFCGYARGWYRQAPGKERELDAAISSSGGSTYYADSVKGRFTISRDNAKNTDYLQMNSLKPEDTAVYYCAKVGRSRRYYYWGQGTQVTVSS
polyreactivity (PSR sort gate): high polyreactivity

KVQVVESGGGFVQAGGSLGLSCAASGRIFGVYAMGWYTQAPGKERELVAAINYSGTRTYYADSVKGRFTISRDNGKNTVYLQMNSLKPEDSAVYYCGARRGSYSVTEYWGQGTQVNVSS
polyreactivity (PSR sort gate): high polyreactivity

QVQLVESGGGLVQAGGSLRLSCAASGFTFIFNAMGWNRQAPGKERELVATISSGGSTYYADSVKGRFTISRDNAKNTVYLQMNSLKPEDTAVYYCNTDDVGGYDYWGQGTQVTLSS
polyreactivity (PSR sort gate): low polyreactivity

QVQLVESGGGLVQAGGSLRLSCAASGRTFWFYTMGWYRKAPGKEREFVAAISSGGSTNYADSVKGRFTISRDNAKYSVYLQMNSLKPEDTALYYCNARFQVGQSEYAVWYYPKYDYWGQGTQVTVSS
polyreactivity (PSR sort gate): low polyreactivity

QVQLVESGSGLVQAGGSLRLSCAHSGFTVSYYVMGWYRQAPGKERELVAAISWSGGSTYYADSVKGRFTISLDNAKNTVYLQMNSLKPEDTAFYYCNADDWRDDYEYWGQGTQVTVSS
polyreactivity (PSR sort gate): high polyreactivity

QVQLVESGGGLVQAGGSLRLSCAASGYTFYSYAMGWYRQAPGKERELFAAITESGARTYYADSVKGRFTISRDNAKNTVYLQMNSLKPEVTAVYYCAADYAWPLRVTGDYWGQGTQVTVSS
polyreactivity (PSR sort gate): low polyreactivity

QVQLVESGGGLVQAGGRLRLSCAASGRTFRGNVMGWYRQAPGKEREFVAAITKSDGSTYYADSVKGRFTISRDNAKNTVYLQMNSLKPEDTAVYYCAARTGRTGWPWFRYDYWGQGTQVTVSS
polyreactivity (PSR sort gate): low polyreactivity
